The results in this text go back to patent US20240294593A1 (Genentech, published 2024).

Assay [1] addresses T1, human PD-1-His (human, UniProt Q15116 25-167, limits assumed).
T1 construct: Antigen of the Octet assays; not shown: His tag
Kind of assay: Octet (BLI), AHC capture of the bivalent mAb, PD-1 in solution. Background: Biolayer interferometry detects binding as a change in optical thickness at a sensor tip.

Assay [2] addresses T1, human PD-1-His. Kind of assay: Octet (BLI), AHC biosensors capture the bivalent mAb, dipped into multiple concentrations of PD-1; KDapp per legend.
Assay [3] has as its target T1, human PD-1-His. Kind of assay: Octet.

One may read the koff as the first-order rate constant of dissociation. For orientation: kon means a measure of how fast the partners come together. A high value points to faster complex formation.

Substitutions are numbered along the chain they refer to. In names and notes the source's numbering stands.

T1 sequence (Q15116 25-167 limits assumed): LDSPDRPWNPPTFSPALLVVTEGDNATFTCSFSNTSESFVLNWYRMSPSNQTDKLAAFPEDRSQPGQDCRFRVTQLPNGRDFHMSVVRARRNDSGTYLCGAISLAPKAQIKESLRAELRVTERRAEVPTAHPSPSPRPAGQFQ

B1: H1.194_L1.1 (XENP32810) (antibody, human IgG1, kappa, V domains shown)
VH: EVQLVESGGGLVQPGGSLRLSCAASGFTFSSFGMHWVRQAPGKGLEWVSYISSGSSIIYYADSVKGRFTISRDNAKNSLYLQMNSLRAEDTAVYYCARGGQLVFSPDYWGQGTLVTVSS
VL: DIVMTQSPDSLAVSLGERATINCKSSQSLLHSGNQKNYLTWYQQKPGQPPKLLIYWASTRESGVPDRFTGSGSGTDFTLTISSLQAEDVAVYYCQNDYSYPFTFGSGTKLEIKR
notes: VH substitution R109Q/W112F (Xencor #); R97Q/W100F (Kabat); also called mAb C[PD1]_H1.194_L1.1_IgG1_PVA_/S267K
In the assay with human PD-1-His [1], B1 registered an off-rate (koff) of 0.00395 s⁻¹ and a kon of 166000 M⁻¹ s⁻¹. In addition, in the assay with human PD-1-His [2], the Kd was found to be 23.7 nM.

B2: H1.211_L1.1 (XENP32827) (antibody, human IgG1, kappa, V domains shown)
VH: B1 VH with Q101R, S105A
VL: B1 VL
notes: VH substitution W112F/S113A (Xencor #); W100F/S100aA (Kabat); also called mAb C[PD1]_H1.211_L1.1_IgG1_PVA_/S267K
In the assay with human PD-1-His [1], B2 showed a koff of 0.00252 s⁻¹ and a kon of 133000 M⁻¹ s⁻¹. Besides, the Kd in the assay with human PD-1-His [2] worked out at 19 nM.

B3: H1_L1.132 (antibody, V domains shown)
VH: B1 VH with Q101R, F104W
VL: B1 VL with H31N, Y100Q
notes: also called VL-Y100Q; Kabat 94
Turning to B3, in the assay with human PD-1-His [3], the Kd was 37 nM, the koff was 0.00615 s⁻¹ and the on-rate constant (kon) is 166000 M⁻¹ s⁻¹.

B4: H1_L1.128 (antibody, V domains shown)
VH: B1 VH with Q101R, F104W
VL: B1 VL with H31N, Y100L
notes: also called VL-Y100L; Kabat 94
In the assay with human PD-1-His [3], B4 returned a Kd of 186 nM, a koff of 0.0911 s⁻¹ and an association rate constant (kon) of 490000 M⁻¹ s⁻¹.

B5: H1_L1.127 (antibody, V domains shown)
VH: B1 VH with Q101R, F104W
VL: B1 VL with H31N, Y100H
notes: also called VL-Y100H; Kabat 94
In the assay with human PD-1-His [3], B5 gave a Kd of 55.5 nM, an off-rate constant (koff) of 0.00741 s⁻¹ and an on-rate constant (kon) of 133000 M⁻¹ s⁻¹.

B6: H1_L1.129 (antibody, human IgG1, kappa, V domains shown)
VH: B1 VH with Q101R, F104W
VL: B1 VL with H31N, Y100W
notes: also called VL-Y100W; Kabat 94
In the assay with human PD-1-His [3], B6 came in with a Kd of 9.44 nM, a koff of 0.001 s⁻¹ and an association rate constant (kon) of 106000 M⁻¹ s⁻¹.

B7: H1.197_L1.1 (XENP32813) (antibody, human IgG1, kappa, V domains shown)
VH: B1 VH with Q101R, V103L
VL: B1 VL
notes: VH substitution V111L/W112F (Xencor #); V99L/W100F (Kabat); also called mAb C[PD1]_H1.197_L1.1_IgG1_PVA_/S267K
In the assay with human PD-1-His [1], B7 returned an off-rate constant (koff) of 0.00436 s⁻¹ and a kon of 123000 M⁻¹ s⁻¹. The same molecule yielded a Kd with human PD-1-His [2] of 35.4 nM.

B8: H1.196_L1.1 (XENP32812) (antibody, human IgG1, kappa, V domains shown)
VH: B1 VH with Q101R, V103F
VL: B1 VL
notes: VH substitution V111F/W112F (Xencor #); V99F/W100F (Kabat); also called mAb C[PD1]_H1.196_L1.1_IgG1_PVA_/S267K
Take B8: in the assay with human PD-1-His [1], the koff is 0.00475 s⁻¹ and the on-rate constant (kon) was found to be 106000 M⁻¹ s⁻¹. Also, the Kd with human PD-1-His [2] was found to be 44.8 nM.

B9: H1.206_L1.1 (XENP32822) (antibody, human IgG1, kappa, V domains shown)
VH: B1 VH with Q101R, F104L
VL: B1 VL
notes: VH substitution W112L (Xencor #) but W100F in the Kabat column: the two columns disagree; also called mAb C[PD1]_H1.206_L1.1_IgG1_PVA_/S267K
Take B9: in the assay with human PD-1-His [1], the koff came to 0.00505 s⁻¹ and the on-rate constant (kon) came out at 148000 M⁻¹ s⁻¹. This molecule also had a Kd with human PD-1-His [2] of 34.2 nM.

B10: H1.209_L1.1 (XENP32825) (antibody, human IgG1, kappa, V domains shown)
VH: B1 VH with Q101R, L102F
VL: B1 VL
notes: VH substitution L110F/W112F (Xencor #); L98F/W100F (Kabat); also called mAb C[PD1]_H1.209_L1.1_IgG1_PVA_/S267K
Take B10: in the assay with human PD-1-His [1], the off-rate (koff) worked out at 0.00489 s⁻¹ and the association rate constant (kon) stood at 173000 M⁻¹ s⁻¹. The Kd in the assay with human PD-1-His [2] is 28.2 nM.

B11: H1.208_L1.1 (XENP32824) (antibody, human IgG1, kappa, V domains shown)
VH: B1 VH with Q101R, L102S
VL: B1 VL
notes: VH substitution L110S/W112F (Xencor #); L98S/SW100F (Kabat); also called mAb C[PD1]_H1.208_L1.1_IgG1_PVA_/S267K
In the assay with human PD-1-His [1], B11 yielded a koff of 0.00509 s⁻¹ and a kon of 77700 M⁻¹ s⁻¹. The same molecule yielded a Kd in the assay with human PD-1-His [2] of 65.5 nM.

B12: H1.199_L1.1 (XENP32815) (antibody, human IgG1, kappa, V domains shown)
VH: B1 VH with Q101R, V103I, P106S
VL: B1 VL
notes: VH substitution V111I/W112F/P114S (Xencor #); V99I/W100F/P100bS (Kabat); also called mAb C[PD1]_H1.199_L1.1_IgG1_PVA_/S267K
In the case of B12, in the assay with human PD-1-His [1], the koff came to 0.00155 s⁻¹ and the on-rate constant (kon) was 99700 M⁻¹ s⁻¹. This molecule also came in with a Kd with human PD-1-His [2] of 15.5 nM.

B13: H1.212_L1.1 (XENP32828) (antibody, human IgG1, kappa, V domains shown)
VH: B1 VH with Q101T, L102K
VL: B1 VL
notes: VH substitution R109T/L110K/W112F (Xencor #); R97T/L98K/W100F (Kabat); also called mAb C[PD1]_H1.212_L1.1_IgG1_PVA_/S267K
For B13, in the assay with human PD-1-His [1], the dissociation rate constant (koff) came to 0.00469 s⁻¹ and the association rate constant (kon) was found to be 152000 M⁻¹ s⁻¹. The Kd with human PD-1-His [2] is 30.8 nM.

B14: H1.200_L1.1 (XENP32816) (antibody, human IgG1, kappa, V domains shown)
VH: B1 VH with G100H, Q101R, L102V
VL: B1 VL
notes: VH substitution G108H/L110V/W112F (Xencor #); G96H/L98V/W100F (Kabat); also called mAb C[PD1]_H1.200_L1.1_IgG1_PVA_/S267K
In the assay with human PD-1-His [1], B14 returned a koff of 0.00672 s⁻¹ and a kon of 336000 M⁻¹ s⁻¹. Moreover, in the assay with human PD-1-His [2], the Kd is 20 nM.

B15: H1.202_L1.1 (XENP32818) (antibody, human IgG1, kappa, V domains shown)
VH: B1 VH with Q101R, V103Q, S105T
VL: B1 VL
notes: VH substitution V111Q/W112F/S113T (Xencor #); V99Q/W100F/S100aT (Kabat); also called mAb C[PD1]_H1.202_L1.1_IgG1_PVA_/S267K
For B15, in the assay with human PD-1-His [1], the off-rate (koff) is 0.00239 s⁻¹ and the association rate constant (kon) amounted to 104000 M⁻¹ s⁻¹. Also, the Kd with human PD-1-His [2] worked out at 23 nM.

B16: H1.204_L1.1 (XENP32820) (antibody, human IgG1, kappa, V domains shown)
VH: B1 VH with L102Q, S105A
VL: B1 VL
notes: VH substitution R109Q/L110Q/W112F/S113A (Xencor #); R97Q/L98Q/W100F/S100aA (Kabat); also called mAb C[PD1]_H1.204_L1.1_IgG1_PVA_/S267K
Turning to B16, in the assay with human PD-1-His [1], the koff came to 0.00404 s⁻¹ and the on-rate constant (kon) turned out to be 154000 M⁻¹ s⁻¹. The same molecule showed a Kd in the assay with human PD-1-His [2] of 26.2 nM.

B17: H1.210_L1.1 (XENP32826) (antibody, human IgG1, kappa, V domains shown)
VH: B1 VH with Q101W, L102H
VL: B1 VL
notes: VH substitution R109W/L110H/W112F (Xencor #); R97W/L98H/W100F (Kabat); also called mAb C[PD1]_H1.210_L1.1_IgG1_PVA_/S267K
Take B17: in the assay with human PD-1-His [1], the koff amounted to 0.00244 s⁻¹ and the kon stood at 154000 M⁻¹ s⁻¹. Besides, the Kd with human PD-1-His [2] is 15.9 nM.

B18: H1_L1.133 (antibody, V domains shown)
VH: B1 VH with Q101R, F104W
VL: B1 VL with H31N, Y100D
notes: also called VL-Y100D; Kabat 94
In the assay with human PD-1-His [3], B18 showed a Kd of 405 nM, a koff of 0.0264 s⁻¹ and an on-rate (kon) of 65100 M⁻¹ s⁻¹.

B19: H1.195_L1.1 (XENP32811) (antibody, human IgG1, kappa, V domains shown)
VH: B1 VH with Q101R, L102Q
VL: B1 VL
notes: VH substitution L110Q/W112F (Xencor #); L98Q/W100F (Kabat); also called mAb C[PD1]_H1.195_L1.1_IgG1_PVA_/S267K
In the case of B19, in the assay with human PD-1-His [1], the koff was found to be 0.00436 s⁻¹ and the on-rate constant (kon) was found to be 104000 M⁻¹ s⁻¹. Moreover, the Kd with human PD-1-His [2] is 41.9 nM.

B20: H1.207_L1.1 (XENP32823) (antibody, human IgG1, kappa, V domains shown)
VH: B1 VH with Q101R, S105T
VL: B1 VL
notes: VH substitution W112F/S113T (Xencor #); W100F/S100aT (Kabat); also called mAb C[PD1]_H1.207_L1.1_IgG1_PVA_/S267K
In the assay with human PD-1-His [1], B20 displayed a koff of 0.00151 s⁻¹ and an association rate constant (kon) of 73600 M⁻¹ s⁻¹. The same molecule yielded a Kd in the assay with human PD-1-His [2] of 20.5 nM.

B21: H1.198_L1.1 (XENP32814) (antibody, human IgG1, kappa, V domains shown)
VH: B1 VH with Q101R, S105N
VL: B1 VL
notes: VH substitution W112F/S113N (Xencor #); W100F/S100aN (Kabat); also called mAb C[PD1]_H1.198_L1.1_IgG1_PVA_/S267K
With B21, in the assay with human PD-1-His [1], the off-rate (koff) turned out to be 0.00142 s⁻¹ and the kon amounted to 78000 M⁻¹ s⁻¹. In the assay with human PD-1-His [2], this molecule returned a Kd of 18.2 nM.

B22: H1_L1.134 (antibody, V domains shown)
VH: B1 VH with Q101R, F104W
VL: B1 VL with H31N, Y100K
notes: also called VL-Y100K; Kabat 94
Turning to B22, in the assay with human PD-1-His [3], the Kd turned out to be 91.3 nM, the koff is 0.0153 s⁻¹ and the association rate constant (kon) was 168000 M⁻¹ s⁻¹.

B23: H1.205_L1.1 (XENP32821) (antibody, human IgG1, kappa, V domains shown)
VH: B1 VH with Q101K, S105A
VL: B1 VL
notes: VH substitution R109K/W112F/S113A (Xencor #); R97K/W100F/S100aA (Kabat); also called mAb C[PD1]_H1.205_L1.1_IgG1_PVA_/S267K
Consider B23, for which, in the assay with human PD-1-His [1], the off-rate (koff) came out at 0.00296 s⁻¹ and the association rate constant (kon) turned out to be 111000 M⁻¹ s⁻¹. This molecule also returned a Kd with human PD-1-His [2] of 26.8 nM.
